For assay [1], the target named is hen egg white lysozyme (hen) (UniProt P00698). As to the kind of experiment: fluorescence emission, excitation at 469 nm, lysozyme at 100 nM and 1 uM, three preparations.
The target is the same in assay [2]. In words: fluorescence at 535 nm, excitation at 480 nm, lysozyme 10 nM to 2 uM in 50 mM Tris-HCl, 150 mM NaCl, pH 7.5.
Assay [3] shares this target. As to the kind of experiment: fluorescence emission after addition of lysozyme, excitation at 469 nm, several preparations.

UniProt P00698, sequence (P00698 19-147 limits assumed): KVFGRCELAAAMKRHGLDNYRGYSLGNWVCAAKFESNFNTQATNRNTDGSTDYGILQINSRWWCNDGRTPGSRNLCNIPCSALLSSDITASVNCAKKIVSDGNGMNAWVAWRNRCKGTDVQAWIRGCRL

B1: scFv-His6(VL-S93ANBD) conjugate (scFv)
scFv: EVKLQESGPGLVAPSQSLSITCTVSGFSLTGYGVNWVRQPPGKGLEWLGMIWGDGNTDYNSALKSRLSISKDNSKSQVFLKMNSLHTDDTARYYCARERDYRLDYWGQGTTVTVSSGGGGSGGGGSGGGGSDIELTQSPASLSASVGETVTITCRASGNIHNYLAWYQQKQGKSPQLLVYYTTTLADGVPSRFSGSGSGTQYSLKINSLQPEDFGSYYCQHFWCTPRTFGGGTKLEIKRPLEHHHHHH
modifications: chain 1 pos 224 (VL Cys93): Cys whose S-gamma is coupled to the fluorophore IANBD (ANBD adduct), written C
Regarding B1, the maximum enhancement of fluorescence in assay [1] worked out at 27%. In assay [2], this molecule displayed an increase of fluorescence intensity at saturation of 91%. This molecule had a fluorescence intensity at saturation relative to the free biosensor in assay [3] of 1.26 times.

(Values after patent US20030153012A1.)
